Results as given in patent publication US20180185502A1, “IMMOBILIZATION OF BIOMOLECULES BY SELF-ASSEMBLED NANOSTRUCTURES” (priority 2015, published 2018).

Columns and labels:
Format in all cases: biochemical
R. rubrum RubisCO [1] = target: T1, R. rubrum RubisCO (Rhodospirillum rubrum, UniProt P04718); test: Stability of nanotube-RubisCO co-assembly to proteolysis by subtilisin over 45 minutes; conditions: within 45 minutes; FIG. 5
T1 sequence (P04718 1-466): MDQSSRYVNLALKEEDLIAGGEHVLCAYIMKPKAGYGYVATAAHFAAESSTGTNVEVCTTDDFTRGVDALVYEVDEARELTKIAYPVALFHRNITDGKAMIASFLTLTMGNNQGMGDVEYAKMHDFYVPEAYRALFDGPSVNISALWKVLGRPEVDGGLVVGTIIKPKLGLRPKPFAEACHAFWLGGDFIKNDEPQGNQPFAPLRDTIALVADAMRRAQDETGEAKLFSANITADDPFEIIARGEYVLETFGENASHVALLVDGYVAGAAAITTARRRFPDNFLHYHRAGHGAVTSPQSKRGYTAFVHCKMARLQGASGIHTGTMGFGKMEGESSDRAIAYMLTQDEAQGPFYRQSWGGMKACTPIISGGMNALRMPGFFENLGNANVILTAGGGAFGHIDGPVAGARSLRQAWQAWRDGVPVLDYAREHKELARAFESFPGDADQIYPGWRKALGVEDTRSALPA
Procedure: Subtilisin is a non-specific, serine protease capable of rapidly degrading proteins by amide bond cleavage. The stability of the nanotube-RubisCO co-assembly to proteolysis by subtilisin was evaluated over 45 minutes and compared to the free R. rubrum RubisCO. […] In contrast, the bound enzyme retains 75% of its activity upon exposure to the protease over this time range.

R. rubrum RubisCO [2] = target: T1, R. rubrum RubisCO; test: RubisCO functional assay (activity of free, nanotube-bound or monomer-exposed enzyme)
Procedure: Although the samples were identical in purity and composition, the resultant activity of the bound RubisCO varied. […] Thus, by pelleting the nanotube by ultracentrifugation, followed by additional washing of the pellet, prior to adding the enzyme, the activity increased dramatically to 67%.
Nanotubes for this experiment were set up with 10 mM monomer in 1 mL buffer and aged for ˜5 days at room temperature. Nanotubes were then isolated using ultracentrifugation and re-suspended back in 1 mL buffer with 0.1 mg of R. rubrum RubisCO. This suspension was incubated at 1° C. for 15 hrs prior to ultracentrifugation and re-suspension of the final nanotubes in 1 mL buffer.

R. rubrum RubisCO [3] = target: T1, R. rubrum RubisCO; test: as above; conditions: initial functional assays
[4] = RubisCO alone or with pre-formed nanotubes added
[5] = pre-formed nanotubes from 10 mM monomer aged ~5 days, isolated by ultracentrifugation, re-suspended with 0.1 mg RubisCO in 1 mL buffer, 15 hrs
[6] = Subtilisin (0.5 μg/ml; 30° C./1 hr)

Substance: Pure R. rubrum RubisCO: RubisCO dimer from the bacterium Rhodospirillum rubrum, a CO2-fixing enzyme, free form
- loss of activity in presence of subtilisin (R. rubrum RubisCO [1]): 80%
- % Activity retained (R. rubrum RubisCO [2]; [4]): 100%
- Activity (R. rubrum RubisCO [2]; [4]): 3405 nmol/min/mg
- % Activity retained (R. rubrum RubisCO [2]; [5]): 100%
- Activity (R. rubrum RubisCO [2]; [5]): 1803 nmol/min/mg
- % Activity retained (R. rubrum RubisCO [3]; Heat (65° C./10 min)): 77%
- Activity (R. rubrum RubisCO [3]; Heat (65° C./10 min)): 2248 nmol/min/mg
- % Activity retained (R. rubrum RubisCO [3]; [6]): 7%
- Activity (R. rubrum RubisCO [3]; [6]): 212 nmol/min/mg
- Activity (R. rubrum RubisCO [3]; untreated or no treatment stated): 2903 nmol/min/mg
- Activity (R. rubrum RubisCO [3]; untreated or no treatment stated, listed as 0.1 mg/ml R. rubrum RubisCO (after 80K spin)): 3007 nmol/min/mg
- % Activity retained (R. rubrum RubisCO [3]; untreated or no treatment stated, relative to pure R. rubrum RubisCO): 100%
- % Activity retained (R. rubrum RubisCO [3]; untreated or no treatment stated, relative to pure R. rubrum RubisCO, listed as 0.1 mg/ml R. rubrum RubisCO (after 80K spin)): 104%
